Like-named read-outs stand apart in the source and are kept apart here.
Assay: In vivo biodistribution by organ and tissue extraction
Set-up: species or system male Wistar rats
Conditions: male, Wistar, total radioactivity, rat, mean ± SD; for tissue uptake dose at 48 h / SUV at 48 h: 2880 min p.i.; for tissue uptake dose at 5 min / SUV at 5 min: 5 min p.i.; for tissue uptake dose at 1 h / SUV at 1 h: 60 min p.i.; for tissue uptake dose at 4 h / SUV at 4 h: 240 min p.i.; for tissue uptake dose at 24 h / SUV at 24 h: 1440 min p.i.
Procedure: The present study includes data obtained from a total of 50 animals. Four animals (body weight 227 ± 10 g) for each time point were injected intravenously into a tail vein or subcutaneously with approximately 0.3 MBq ([…]) [^64Cu]Cu-NOTA-HsTX1[R14A] conjugate in 0.5 mL electrolyte solution E-153 (Serumwerk Bernburg, Germany). Animals were euthanised at 5, 60, 240, 1440 and 2880 min post-injection. Blood and the major organs were collected, weighed, and counted in a cross-calibrated γ-counter (Isomed 1000, Isomed GmbH, Dresden) and Wallac WIZARD Automatic Gamma Counter (PerkinElmer, Germany). The radioactivity of the tissue samples was decay-corrected and calibrated by comparing the counts in tissue with the counts in aliquots of the injected radiotracer that had been measured in the γ-counter at the same time. The activity in the selected organs was expressed as percent-injected dose per organ (% ID) and the activity concentration in tissues and organs as standardised uptake value (SUV). Values are quoted as mean ± standard error of mean (SEM) for each group of four animals.

[1] = lung, iv, 0.3 MBq, i.v., n=4, read-out: Lung activity amount
[2] = lung, iv, 0.3 MBq, i.v., n=8, read-out: Lung activity amount
[3] = lung, iv, i.v., n=4, read-out: Lung SUV
[4] = lung, iv, i.v., n=8, read-out: Lung SUV
[5] = lung, sc, 0.3 MBq, s.c., n=4, read-out: Lung activity amount
[6] = lung, sc, s.c., n=4, read-out: Lung SUV
[7] = muscle, iv, i.v., n=4, read-out: Muscle SUV
[8] = muscle, iv, i.v., n=8, read-out: Muscle SUV
[9] = muscle, sc, s.c., n=4, read-out: Muscle SUV
[10] = pancreas, iv, 0.3 MBq, i.v., n=4, read-out: Pancreas SUV
[11] = pancreas, iv, 0.3 MBq, i.v., n=4, read-out: Pancreas activity amount
[12] = pancreas, iv, 0.3 MBq, i.v., n=8, read-out: Pancreas SUV
[13] = pancreas, iv, 0.3 MBq, i.v., n=8, read-out: Pancreas activity amount
[14] = pancreas, sc, 0.3 MBq, s.c., n=4, read-out: Pancreas SUV
[15] = pancreas, sc, 0.3 MBq, s.c., n=4, read-out: Pancreas activity amount
[16] = spleen, iv, 0.3 MBq, i.v., n=4, read-out: Spleen SUV
[17] = spleen, iv, 0.3 MBq, i.v., n=4, read-out: Spleen activity amount
[18] = spleen, iv, 0.3 MBq, i.v., n=8, read-out: Spleen SUV
[19] = spleen, iv, 0.3 MBq, i.v., n=8, read-out: Spleen activity amount
[20] = spleen, sc, 0.3 MBq, s.c., n=4, read-out: Spleen SUV
[21] = spleen, sc, 0.3 MBq, s.c., n=4, read-out: Spleen activity amount
[22] = stomach, iv, 0.3 MBq, i.v., n=4, read-out: Stomach activity amount
[23] = stomach, iv, 0.3 MBq, i.v., n=8, read-out: Stomach activity amount
[24] = stomach, sc, 0.3 MBq, s.c., n=4, read-out: Stomach activity amount
[25] = testes, iv, 0.3 MBq, i.v., n=4, read-out: Testes SUV

CSCC[C@@H]1NC(=O)[C@@H]2CSSC[C@H](NC(=O)[C@H](CO)NC(=O)[C@H](C)NC(=O)COCCOCCNC(=O)CN3CCN(CC(=O)O)CCN(CC(=O)O)CC3)C(=O)N[C@@H](CCCNC(=N)N)C(=O)N[C@@H]([C@@H](C)O)C(=O)N3CCC[C@H]3C(=O)N[C@@H](CCCCN)C(=O)N[C@@H](CC(=O)O)C(=O)N[C@H]3CSSC[C@H](NC(=O)[C@H](CCCCN)NC(=O)[C@H](CCCNC(=N)N)NC(=O)[C@H](CC(N)=O)NC1=O)C(=O)N[C@@H](CCCCN)C(=O)N[C@H]1CSSC[C@H](NC(=O)[C@@H]4CCCN4C(=O)[C@H](CC(=O)O)NC(=O)[C@H](C)NC3=O)C(=O)N[C@@H](C)C(=O)N[C@@H](CCCCN)C(=O)N[C@@H](CCC(=O)O)C(=O)N[C@@H]([C@@H](C)O)C(=O)NCC(=O)N[C@@H](CSSC[C@@H](C(N)=O)NC(=O)[C@H](CCCNC(=N)N)NC(=O)[C@H](CC(N)=O)NC1=O)C(=O)N1CCC[C@H]1C(=O)N[C@@H](Cc1ccc(O)cc1)C(=O)NCC(=O)N[C@@H](CCCCN)C(=O)N2 [[^64Cu]Cu-NOTA-HsTX1[R14A], metal not drawn]
tissue uptake dose at 48 h (liver, sc, 0.3 MBq, s.c., n=4, read-out: Liver activity amount): 7.85 ± 0.49 %ID
tissue uptake dose at 5 min [1]: 1.44 ± 0.18 %ID
tissue uptake dose at 1 h [2]: 1.24 ± 0.3 %ID
tissue uptake dose at 4 h [1]: 0.92 ± 0.12 %ID
tissue uptake dose at 24 h [2]: 0.5 ± 0.05 %ID
tissue uptake dose at 48 h [1]: 0.46 ± 0.06 %ID
SUV at 5 min [3]: 2.87 ± 0.32 SUV
SUV at 1 h [4]: 1.98 ± 0.17 SUV
SUV at 4 h [3]: 1.24 ± 0.1 SUV
SUV at 24 h [4]: 0.78 ± 0.13 SUV
SUV at 48 h [3]: 0.55 ± 0.03 SUV
tissue uptake dose at 1 h [5]: 1.64 ± 0.24 %ID
tissue uptake dose at 4 h [5]: 1.04 ± 0.08 %ID
tissue uptake dose at 24 h [5]: 0.49 ± 0.02 %ID
tissue uptake dose at 48 h [5]: 0.33 ± 0.01 %ID
SUV at 1 h [6]: 2.1 ± 0.33 SUV
SUV at 4 h [6]: 1.32 ± 0.12 SUV
SUV at 24 h [6]: 0.63 ± 0.02 SUV
SUV at 48 h [6]: 0.47 ± 0.01 SUV
SUV at 5 min [7]: 0.43 ± 0.03 SUV
SUV at 1 h [8]: 0.17 ± 0.06 SUV
SUV at 4 h [7]: 0.07 SUV
SUV at 24 h [8]: 0.18 ± 0.02 SUV
SUV at 48 h [7]: 0.19 ± 0.01 SUV
SUV at 1 h [9]: 0.15 ± 0.02 SUV
SUV at 4 h [9]: 0.08 ± 0.01 SUV
SUV at 24 h [9]: 0.19 ± 0.01 SUV
SUV at 48 h [9]: 0.16 SUV
SUV at 5 min [10]: 0.64 ± 0.09 SUV
tissue uptake dose at 5 min [11]: 0.11 ± 0.03 %ID
SUV at 1 h [12]: 0.3 ± 0.04 SUV
tissue uptake dose at 1 h [13]: 0.06 ± 0.02 %ID
SUV at 4 h [10]: 0.24 ± 0.01 SUV
tissue uptake dose at 4 h [11]: 0.08 %ID
SUV at 24 h [12]: 0.62 ± 0.16 SUV
tissue uptake dose at 24 h [13]: 0.2 ± 0.16 %ID
SUV at 48 h [10]: 0.32 ± 0.01 SUV
tissue uptake dose at 48 h [11]: 0.08 ± 0.01 %ID
SUV at 1 h [14]: 0.29 ± 0.03 SUV
tissue uptake dose at 1 h [15]: 0.11 ± 0.03 %ID
SUV at 4 h [14]: 0.25 SUV
tissue uptake dose at 4 h [15]: 0.08 ± 0.01 %ID
SUV at 24 h [14]: 0.48 ± 0.02 SUV
tissue uptake dose at 24 h [15]: 0.15 ± 0.01 %ID
SUV at 48 h [14]: 0.28 ± 0.02 SUV
tissue uptake dose at 48 h [15]: 0.07 ± 0.01 %ID
SUV at 5 min [16]: 4.06 ± 0.6 SUV
tissue uptake dose at 5 min [17]: 0.83 ± 0.12 %ID
SUV at 1 h [18]: 3.42 ± 0.42 SUV
tissue uptake dose at 1 h [19]: 0.79 ± 0.11 %ID
SUV at 4 h [16]: 2.4 ± 0.1 SUV
tissue uptake dose at 4 h [17]: 0.67 ± 0.06 %ID
SUV at 24 h [18]: 0.83 ± 0.26 SUV
tissue uptake dose at 24 h [19]: 0.18 ± 0.04 %ID
SUV at 48 h [16]: 0.56 ± 0.05 SUV
tissue uptake dose at 48 h [17]: 0.16 ± 0.01 %ID
SUV at 1 h [20]: 4 ± 0.21 SUV
tissue uptake dose at 1 h [21]: 1.08 ± 0.03 %ID
SUV at 4 h [20]: 2.84 ± 0.25 SUV
tissue uptake dose at 4 h [21]: 0.75 ± 0.03 %ID
SUV at 24 h [20]: 0.59 ± 0.03 SUV
tissue uptake dose at 24 h [21]: 0.15 %ID
SUV at 48 h [20]: 0.47 ± 0.04 SUV
tissue uptake dose at 48 h [21]: 0.15 ± 0.01 %ID
tissue uptake dose at 5 min [22]: 0.67 ± 0.09 %ID
tissue uptake dose at 1 h [23]: 1.28 ± 1.2 %ID
tissue uptake dose at 4 h [22]: 1.52 ± 1.06 %ID
tissue uptake dose at 24 h [23]: 1.56 ± 1.04 %ID
tissue uptake dose at 48 h [22]: 1.46 ± 0.37 %ID
tissue uptake dose at 1 h [24]: 1.14 ± 0.45 %ID
tissue uptake dose at 4 h [24]: 0.6 ± 0.03 %ID
tissue uptake dose at 24 h [24]: 0.82 ± 0.07 %ID
tissue uptake dose at 48 h [24]: 1.72 ± 1.02 %ID
SUV at 5 min [25]: 0.24 ± 0.03 SUV
tissue uptake dose at 5 min (testes, iv, 0.3 MBq, i.v., n=4, read-out: Testes activity amount): 0.27 ± 0.05 %ID
SUV at 1 h (testes, iv, 0.3 MBq, i.v., n=8, read-out: Testes SUV): 0.16 ± 0.01 SUV
tissue uptake dose at 1 h (testes, iv, 0.3 MBq, i.v., n=8, read-out: Testes activity amount): 0.23 ± 0.02 %ID
SUV at 4 h [25]: 0.13 ± 0.01 SUV

Reference: paper PMC5473807, “Distribution and kinetics of the Kv1.3-blocking peptide HsTX1[R14A] in experimental rats” (Scientific Reports, 2017)
